Experimental data from publication PMC11969024, “Development of chemokine network inhibitors using combinatorial saturation mutagenesis” (Communications Biology, 2025).

B1: peptide HD2 (from tick evasin EVA4) / CXCL13 (biotinylated, synthetic) (parent)
chain 1: EEDDYTAYAPLTCYFT
chain 2: VLEVYYTSLRCRCVQESSVFIPRRFIDRIQILPRGNGCPRKEIIVWKKNKSIVCVDPQAEWIQRMMEVLRKRSSSTLPVPVFKRKIP
B2: peptide HD2 (from tick evasin EVA4) / CCL22 (biotinylated, synthetic) (parent)
chain 1: EEDDYTAYAPLTCYFT
chain 2: GPYGANMEDSVCCRDYVRYRLPLRVVKHFYWTSDSCPRPGVVLLTFRDKEICADPRVPWVKMILNKLSQ

Variants of: B1
Conditions: with CXCL13 (biotinylated, synthetic); scale: log2

In order of falling enrichment:
1. chain 1 Y14Q  -6.82
2. chain 1 Y14P  -7.63
3. chain 1 Y14S  -8.45
4. chain 1 Y14R  -8.87

Variants of: B2
Conditions: with CCL22 (biotinylated, synthetic); scale: log2

In order of rising enrichment:
1. chain 1 C13R  -10.5
2. chain 1 P10V  -10.4
3. chain 1 A9C  -10.1
4. chain 1 E2C  -10
5. chain 1 A9I  -9.99
6. chain 1 D3C  -9.89
7. chain 1 A7C  -9.84
8. chain 1 E1C  -9.75
9. chain 1 P10C  -9.72
10. chain 1 Y8I  -9.38
11. chain 1 C13Q  -9.37
12. chain 1 D4C  -9.24
13. chain 1 P10S  -9.19
14. chain 1 C13K  -9.12
15. chain 1 P10R  -9.08
16. chain 1 Y8G  -8.71
17. chain 1 P10A  -8.71
18. chain 1 P10M  -8.5
19. chain 1 Y8M  -8.49
20. chain 1 Y8T  -8.48
21. chain 1 P10I  -8.44
22. chain 1 A9D  -8.23
23. chain 1 Y8R  -8.18
24. chain 1 Y8N  -8.13
25. chain 1 P10N  -8.02
26. chain 1 P10H  -7.95
27. chain 1 D4T  -7.88
28. chain 1 Y8P  -7.86
29. chain 1 P10T  -7.86
30. chain 1 A9P  -7.8
31. chain 1 D4H  -7.77
32. chain 1 Y8H  -7.57
33. chain 1 D3R  -7.45
34. chain 1 E2R  -7.13
35. chain 1 Y5G  -7.11
36. chain 1 D4R  -7.09
37. chain 1 Y5R  -7.05
38. chain 1 P10K  -6.96
39. chain 1 D4K  -6.88
40. chain 1 Y5P  -6.73
41. chain 1 P10Q  -6.39
42. chain 1 Y8Q  -6.36
43. chain 1 D4G  -6.22
44. chain 1 Y8E  -6.18
45. chain 1 Y8K  -6.07
46. chain 1 Y5K  -5.6
47. chain 1 Y5Q  -5.36
48. chain 1 D3Q  -4.99
